Results reported in paper PMC12413468.

Target: Fluorescent probe peptide NH3+-NLVGRF-[DAP-FAM]-VSPVPE-COO- (human)
Assay: fluorescence polarisation

Chain of His6-tagged OSR1 CCT domain (human OSR1 433–527) (O95747 433-527): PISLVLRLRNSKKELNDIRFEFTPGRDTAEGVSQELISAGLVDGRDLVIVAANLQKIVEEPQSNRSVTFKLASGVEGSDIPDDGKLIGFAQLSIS

| Substance | Kd [nM] | fold decrease in peptide probe binding affinity against wild type [fold] |
| --- | --- | --- |
| His6-tagged OSR1 CCT domain (human OSR1 433–527) (from UniProt O95747 433-527) (domain or fragment) | 1500 |  |
| Purified SPAK CCT domain D477Q (domain or fragment) |  | 50 |
| His6-tagged SPAK CCT domain (mouse SPAK 459–556) (from UniProt Q9Z1W9 459-556) (domain or fragment) | 670 |  |
